# Measured values: patent US20240324599A1, “PESTICIDAL ENZYMES FOR USE ON NEMATODES, INSECTS, AND MOLLUSKS” (priority 2023, published 2024)
# Assays:
# Type in all cases: in vivo
# corn [1] = assay: Field trial: esterase on DAP fertilizer, corn yield; details: for Yield: corn
# Description: (§1) Esterase A (EstA) from Bacillus subtilis (SEQ ID NO:254) was produced via fermentation of a recombinantly produced enzyme in Bacillus subtilis. 1, 2, or 3 fl oz of fermentation product was applied onto 67.5 lb P/A (phosphate equivalent per acre) diammonium phosphate (DAP) fertilizer in a concrete mixer, and allowed to mix for 1 minute. A DAP control treatment without fermentation media was also created. DAP, alone or with fermentation media was distributed across 4 small replicated plots each prior to planting of corn with 4 replicates of 400 ft^2 each at each site.
# winter wheat [2] = assay: Field trial: esterase on urea fertilizer, winter wheat yield; details: for Yield: winter wheat
# Description: (§2) Esterase A (EstA) from Bacillus subtilis (SEQ ID NO:254) was produced via fermentation of a recombinantly produced enzyme in Bacillus subtilis. 1 fl oz or 2 fl oz of fermentation product was applied onto 15 lb N/A (nitrogen equivalent per acre) urea fertilizer in a concrete mixer and allowed to mix for 1 minute. A urea control treatment without fermentation media was also created. urea, alone or with fermentation media was distributed across 4 small replicated plots prior to planting of winter wheat with 5 replicates of 300 ft^2 each at each site.
# corn [3] = assay: Field trial: esterase on urea with or without NBPT, corn yield; details: for Yield: corn
# Description: as §1, with “135” for “67.5”, “N/A (nitrogen” for “P/A (phosphate”, “urea” for “diammonium phosphate (DAP)”, “urea” for “DAP”, “An addition treatment that contained 64 fl oz/ton N-Butyl-thiophosphoric triamide (NBPT) nitrogen stabilizer or 64 fl oz/ton NBPT nitrogen stabilizer with 3 fl oz/A EstA fermentation product was also included in the trial. Urea,” for “DAP,”, “ft2” for “ft^2”
# corn [4] = assay: Field trial: esterase on MAP/DAP fertilizer, corn yield; details: for Yield: corn, 2 fl oz/A on MAP/DAP (72 lb/A Phosphate)
# Description: Esterase A (EstA) from Bacillus subtilis (SEQ ID NO:254) was produced via fermentation of a recombinantly produced enzyme in Bacillus subtilis. 2 fl oz of fermentation product was applied onto either 72 lb P/A (phosphate equivalent per acre) monoammonium phosphate (MAP) fertilizer or diammonium phosphate (DAP) fertilizer in a concrete mixer, and allowed to mix for 1 minute. A MAP/DAP control treatment without fermentation media was also created. MAP or DAP, alone or with fermentation media was distributed across 4 small replicated plots each prior to planting of corn with 5 replicates of 400 ft2 each at each site (4 site with MAP, 4 sites with DAP, combined in data in Table 52 below).
# winter wheat [5] = assay: Field trial: esterase on MAP fertilizer, winter wheat yield and vigor; details: for Yield: winter wheat
# Description: as §2, with “oz” for “oz or 2 fl oz”, “lb P/A (phosphate” for “lb N/A (nitrogen”, “acre) monoammonium phosphate (MAP)” for “acre) urea”, “A MAP” for “A urea”, “created. MAP,” for “created. urea,”
# corn [6] = assay: Field trial: EstA Esterase corn seed treatment, yield; details: text to Table 59; 2.5 fl oz/unit
# Text: 2.5 fl oz/unit of EstA Esterase from recombinant Bacillus subtilis fermentation (SEQ ID NO: 254) was coated onto hybrid corn seeds treated with Fludioxinil, Azoxystrobin, mefonoxam, and thiabendaz fungicides, cyantraniliproleinsecticide, peridium 1006 polymer, and (colorant). A control treatment without esterase enzyme was also created. The seed treated with esterase and control seed was planted in replicated trials distributed across 16 replicated plots with 4 replicates of 80 ft2 each at each site.
molecule,measurement,setting,value
"Bacillus subtilis EstA Esterase (protein, listed as Bacillus subtilis, fermentation product of recombinant Bacillus subtilis) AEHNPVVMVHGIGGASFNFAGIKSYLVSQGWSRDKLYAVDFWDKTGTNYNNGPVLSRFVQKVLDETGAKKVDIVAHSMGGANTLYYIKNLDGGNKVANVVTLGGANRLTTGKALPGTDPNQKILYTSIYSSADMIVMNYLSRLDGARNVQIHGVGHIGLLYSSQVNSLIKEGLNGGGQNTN",Yield,"corn [1]; 1 fl oz/A on DAP (67.5 lb/A Phosphate), base control 196.0",201.8 Bu/A
same,Yield,"corn [1]; 1 fl oz/A on DAP (67.5 lb/A Phosphate), base control 12319.5",12684.4 Kg/ha
same,Yield,"corn [1]; 2 fl oz/A on DAP (67.5 lb/A Phosphate), base control 196.0",204.2 Bu/A
same,Yield,"corn [1]; 2 fl oz/A on DAP (67.5 lb/A Phosphate), base control 12319.5",12834.7 Kg/ha
same,Yield,"corn [1]; 3 fl oz/A on DAP (67.5 lb/A Phosphate), base control 196.0",202.6 Bu/A
same,Yield,"corn [1]; 3 fl oz/A on DAP (67.5 lb/A Phosphate), base control 12319.5",12734.7 Kg/ha
same,"yield versus DAP control, in words","corn [1]; text to Table 54, 1, 2 or 3 fl oz on 67.5 lb P/A DAP",increased the yield
same,"yield versus urea control, in words","winter wheat [2]; text to Table 53, 1 or 2 fl oz on 15 lb N/A urea",increased the yield
same,Yield,"winter wheat [2]; 1 fl oz/A on Urea (15 lb/A Nitrogen), base control 76.1",79.6 Bu/A
same,Yield,"winter wheat [2]; 1 fl oz/A on Urea (15 lb/A Nitrogen), base control 5117.8",5353.2 Kg/ha
same,Yield,"winter wheat [2]; 2 fl oz/A on Urea (15 lb/A Nitrogen), base control 76.1",79.9 Bu/A
same,Yield,"winter wheat [2]; 2 fl oz/A on Urea (15 lb/A Nitrogen), base control 5117.8",5375.4 Kg/ha
same,Yield,"corn [3]; 1 fl oz/A on Urea (135 lb/A Nitrogen), base control 188.2",205.0 Bu/A
same,Yield,"corn [3]; 1 fl oz/A on Urea (135 lb/A Nitrogen), base control 11830.4",12887.5 Kg/ha
same,Yield,"corn [3]; 2 fl oz/A on Urea (135 lb/A Nitrogen), base control 188.2",195.8 Bu/A
same,Yield,"corn [3]; 2 fl oz/A on Urea (135 lb/A Nitrogen), base control 11830.4",12309.9 Kg/ha
same,Yield,"corn [3]; 3 fl oz/A on Urea (135 lb/A Nitrogen), base control 188.2",195.6 Bu/A
same,"yield versus urea control and NBPT containing treatments, in words","corn [3]; text to Table 55, 1, 2 or 3 fl oz on 135 lb N/A urea",increased the yield
same,Yield,corn [4]; base control 202.3,206.6 Bu/A
same,Yield,corn [4]; base control 12798,13077 Kg/ha
same,"yield versus MAP/DAP control, in words","corn [4]; text to Table 52, 2 fl oz on 72 lb P/A MAP or DAP",increased the yield
same,"vigor of young wheat seedlings, in words",winter wheat [5]; text to Table 51,increased the vigor
same,"yield versus MAP control, in words","winter wheat [5]; text to Table 51, 1 fl oz fermentation product on 15 lb P/A MAP",increased the yield
same,"Vigor Score (1 to 5 scale, 5 is highest)","winter wheat [5]; winter wheat seedlings, 1 fl oz/A on MAP (15 lb/A Phosphate), base control 4.0",4.13
same,Yield,"winter wheat [5]; 1 fl oz/A on MAP (15 lb/A Phosphate), base control 61.33",62.82 Bu/A
same,Yield,"winter wheat [5]; 1 fl oz/A on MAP (15 lb/A Phosphate), base control 4124.5",4224.7 Kg/ha
same,"yield versus base seed treatment package, in words",corn [6],increased the yield
